The values below are quoted from earlier work in patent US20260217837A1, “FGFR3 BINDING MOLECULES AND METHODS OF USE THEREOF” (Regeneron Pharmaceuticals, Inc., priority 2023, published 2026).

Where two headings read alike, the source gives them in different places.

The data set has as its system FGFR3.
[1] abbreviates: Table T-1, exemplary FGFR3 parental antibodies of cited publications.
The mark [2] stands for this setting: Exemplary FGFR3 D3 binding sequences, antibodies of cited PCT publications.

B1: VH: SEQ ID NO: 7 of PCT Publication No: WO 2010/048026 A2: unnamed anti-FGFR3 Ig-like domain 2 antibody, VH SEQ ID NO: 7 / VL SEQ ID NO: 8 of WO 2010/048026 A2; SEQ ID NO: 61/62 (antibody, V domains shown)
VH: EVQLVQSGAEVKKPGASVKVSCKASGYMFTSYGISWVRQAPGQGLEWMGWVSTYNGDTNYAQKFQGRVTVTTDTSTSTAYMELRSLRSEDTAVYYCARVLGYYDSIDGYYYGMDVWGQGTTVTVSS
VL: QSVLTQPPSLSVAPGKTATFTCGGNNIGDKSVHWYRQKPGQAPVLVMYLDTERPSGIPERMSGSNFGNTATLTITRVEAEDEADYYCQVWDSGSDHVVFGGGTKLTVLG
On to B1, for which the Activity entry under setting [1] was “Antagonistic”.

B2: FGA0002: anti-FGFR3 (S249C mutant) antibody of WO 2021/010326 A1; SEQ ID NO: 84/85 (antibody, V domains shown)
VH: QELVESGGGLVQPGGSLKLSCKASGIDFSSYGISWVRQAPGKGLEWIAYIVPGFGIRNYANSVKGRFTISSDNAQNTVFLQMTSLTASDTATYFCARVPQYASSSGYYLPFNLWGPGTLVTVSS
VL: ALVMTQTPSPVSAAVGGTVTINCQASEDIYYNLAWFQQKPGQPPKLLIYRASTLASGVPSRFSGSGSGTEFTLTISDVQCDDAATYYCLGVYTYISADGNAFGGGTEVVVK
As to B2, under setting [1], the Activity entry was “Antagonistic”.

B3: KE58: anti-FGFR3 IIIb and IIIc antibody of WO 2022/040560 A1; SEQ ID NO: 78/79 (antibody, V domains shown)
VH: EVQLQQSGPDLVKPGASVKISCKASGYTVTDYYMNWVKQSHGKSLEWIGDINPNNGVTTYNQKFKDKATLTVDKSSSTAYMELRSLTSEDSAVYYCAREEDFDGFDYWGQGTTLTVSS
VL: DIVMTQSHKFMSTSVGDRVSITCKASQDVSTGVAWYQQKPGQSPQLLIYWASTRHTGVPDRFTGSGSGTDYILTIRSVQAEDLALYYCQQHYSTPLTFGAGTKLELK
As for B3, the Activity entry by setting is: under setting [2], “Antagonistic”; under setting [1], “Antagonistic”.

B4: MS-Pro-59: anti-FGFR3 Ig-like domain 3 antibody of WO 2002/102972 A2; SEQ ID NO: 28/29 (antibody, V domains shown)
VH: QVQLQQSGPGLVKPSQTLSLTCAISGDSVSSNSAAWNWIRQSPGRGLEWLGRTYYRSKWYNDYAVSVKSRITINDTSKNQFSLQLNSVTPEDTAVYYCARSYYPDFDYWGQGTVTVSS
VL: DIELTQPPSVSVAPGQTARISCSGDALGDKYASWYQQKPGQAPVLVIYDDSDRPSGIPERFSGSNSGNTATLTISGTQAEDEADYYCQSYDGPDLWVFGGGTKLTVLGQ
For B4, the Activity entry runs as follows: under setting [2], “Antagonistic”; under setting [1], “Antagonistic”.

B5: 184.6.1.N54S: anti-FGFR3 Ig-like domain 3 antibody of WO 2010/111367 A1; SEQ ID NO: 63/64 (antibody, V domains shown)
VH: EVQLVESGGGLVQPGGSLRLSCAASGFTFTSTGISWVRQAPGKGLEWVGRIYPTSGSTNYADSVKGRFTISADTSKNTAYLQMNSLRAEDTAVYYCARARTYGIYDLYVDYTEYVMDYWGQGTLV
VL: DIQMTQSPSSLSASVGDRVTITCRASQDVDTSLAWYQQKPGKAPKLLIYSASFLYSGVPSRFSGSGSGTDFTLTISSLQPEDFATYYCQQSTGHPQTFGQGTKVEIKR
As for B5, the Activity entry is reported as “Antagonistic” under setting [2] and “Antagonistic” under setting [1].

B6: 184.6.58: anti-FGFR3 Ig-like domain 3 antibody of WO 2010/111367 A1 (aka R3Mab); SEQ ID NO: 65/66 (antibody, V domains shown)
VH: EVQLVESGGGLVQPGGSLRLSCAASGFTFTSTGISWVRQAPGKGLEWVARIYPTNGSTNYADSVKGRFTISADTSKNTAYLQMNSLRAEDTAVYYCARARTYGIYDLYVDYTEYVMDYWGQGTLV
VL: DIQMTQSPSSLSASVGDRVTITCRASQDVDISLAWYQQKPGKAPKLLIYSASFLYSGVPSRFSGSGSGTDFTLTISSLQPEDFATYYCQQGAGNPYTFGQGTKVEIKR
Take B6: the Activity result is, setting by setting: under setting [2], “Antagonistic”; under setting [1], “Antagonistic”.

B7: B-701: anti-FGFR3 antibody of WO 2016/134234 A1; SEQ ID NO: 70/71 (antibody, V domains shown)
VH: EVQLVESGGGLVQPGGSLRLSCAASGFTFTSTGISWVRQAPGKGLEWVGRIYPTSGSTNYADSVKGRFTISADTSKNTAYLQMNSLRAEDTAVYYCARTYGIYDLYVDYTEYVMDYWGQGTLV
VL: DIQMTQSPSSLSASVGDRVTITCRASQDVDTSLAWYKQKPGKAPKLLIYSASFLYSGVPSRFSGSGSGTDFTLTISSLQPEDFATYYCQQSTGHPQTFGQGTKVEIKR
In the case of B7, under setting [1], the Activity entry was “Antagonistic”.

B8: 184.6.1.NS D30E: anti-FGFR3 Ig-like domain 3 antibody of WO 2010/111367 A1; SEQ ID NO: 63/69 (antibody, V domains shown)
VH: EVQLVESGGGLVQPGGSLRLSCAASGFTFTSTGISWVRQAPGKGLEWVGRIYPTSGSTNYADSVKGRFTISADTSKNTAYLQMNSLRAEDTAVYYCARARTYGIYDLYVDYTEYVMDYWGQGTLV
VL: DIQMTQSPSSLSASVGDRVTITCRASQDVETSLAWYQQKPGKAPKLLIYSASFLYSGVPSRFSGSGSGTDFTLTISSLQPEDFATYYCQQSTGHPQTFGQGTKVEIKR
Consider B8, for which the Activity entry reads like this: under setting [2], “Antagonistic”; under setting [1], “Antagonistic”.

B9: 184.6.62: anti-FGFR3 Ig-like domain 3 antibody of WO 2010/111367 A1; SEQ ID NO: 67/68 (antibody, V domains shown)
VH: EVQLVESGGGLVQPGGSLRLSCAASGFTFSTTGISWVRQAPGKGLEWVARIYPLYGSTHYADSVKGRFTISADTSKNTAYLQMNSLRAEDTAVYYCARARTYGIYDLYVDYTEYVMDYWGQGTLV
VL: DIQMTQSPSSLSASVGDRVTITCRASQDVSTAVAWYQQKPGKAPKLLIYSASFLYSGVPSRFSGSGSGTDFTLTISSLQPEDFATYYCQQTYTTSLTFGQGTKVEIKR
Take B9: the Activity entry runs as follows: under setting [2], “Antagonistic”; under setting [1], “Antagonistic”.

B10: MS-Pro-11: anti-FGFR3 Ig-like domain 3 antibody of WO 2002/102972 A2; SEQ ID NO: 30/31 (antibody, V domains shown)
VH: QVQLVQSGAEVKKPGASVKVSCKASGYTFTSYYMHWVRQAPGQGLEWMGWINPNSGGTNYAQKFQGRVTMTRDTSISTAYMELSSLRSEDTAVYYCARYYGSSLYHYVFGGFIDYWGQGTLVTVSS
VL: DIALTQPASVSGSPGQSITISCTGTSSDVGGYNYVSYQQHPGKAPKLMIYDVSNRPSGVSNRFSGSKSGNTASLTISGLQAEDEADYYCQSHHFYEVFGGGTKLTVLGQ
Consider B10, for which the Activity entry reads like this: under setting [2], “Antagonistic”; under setting [1], “Antagonistic”.

B11: KE35: anti-FGFR3 IIIb and IIIc antibody of WO 2022/040560 A1; SEQ ID NO: 74/75 (antibody, V domains shown)
VH: EVQLQQSGPELVKPGASVKMSCKASGYTFTDYNMHWVKQSHGKSLEWIGYINPNNGGTRYNQKFKGKATLTVNKSSSTAYMELRSLTSEDSAVYYCARERDYDGAMDYWGQGTSVTVSS
VL: DIQMTQSPSSLSASLGGKVTITCKASQDINKFIAWYQHKPGKGPRLLIHYTSTLQPGIPSRFSGSGSGRDYSFSISNLEPEDIATYYCLQYDNLLWTFGGGTKLEIK
Regarding B11, the Activity result runs as follows: under setting [2], “Antagonistic”; under setting [1], “Antagonistic”.

B12: KE42: anti-FGFR3 IIIb and IIIc antibody of WO 2022/040560 A1; SEQ ID NO: 76/77 (antibody, V domains shown)
VH: EVQLQQSGPELVKPGASVKMSCKASGYTFTDYNMHWVKQSHGKSLQWIGYINPNNGGTNYNQNFKDKATLTVNKSSTTAYMELRSLTSEDSAVYYCARERDYDGSMDFWGQGTSVTVSS
VL: DIQMTQSPSSLSASLGGKVTITCKASQDINKFIAWYQHKPGKGPRLLIHYTSTLQPGIPSRFSGSGSGRDYSFSISNLEPEDIATYFCLQYDNLLWTFGGGTKLEIK
As to B12, the Activity result is, setting by setting: under setting [2], “Antagonistic”; under setting [1], “Antagonistic”.

B13: KE94: anti-FGFR3 IIIb and IIIc antibody of WO 2022/040560 A1; SEQ ID NO: 82/83 (antibody, V domains shown)
VH: QVQLQQSGAELVRPGASVTLSCKASGSTFTDFEIHWVKQTPVHGLEWIGAIDPETGGTAYNQKFKGKAILTAVKSSSTAYMGLRSLTSEDSAVYYCTRNYDGYSRTMDYWGQGTSVTVSS
VL: NIMMTQSPSSLAVSAGEKVTMSCKSSQSVLYSSNQKNYLAWYQQKPGQSPKLLIYWASTRESGVPDRFTGSGSGTDFSLSISSVQTEDLAVYYCHQYLSSYTFGGGTRLEMK
In the case of B13, the Activity result by setting is: under setting [2], “Antagonistic”; under setting [1], “Antagonistic”.

B14: KC18: anti-FGFR3 IIIb and IIIc antibody of WO 2022/040560 A1; SEQ ID NO: 72/73 (antibody, V domains shown)
VH: QVQLQQSGAELVRPGASVTLSCKASGDTFTDFEIHWVKQTPVHGLEWIGDIDPETGGTAYNQKFRGRAMLTADRSSSTAYMELRSLTSEDSAVYYCTRTYDGYPYAMDYWGQGTSVTVSS
VL: DIVMSQSPSSLAVSVGEKVTMSCKSSQSLLYSNNQKNYLAWYQQKPGQSPKLLIYWASTRESGVPDRFTGSGSGTDFTLTISSVKAEDLAVYYCQQYYSYRTFGGGTKLEIK
Consider B14, for which the Activity result is listed as “Antagonistic” under setting [2] and “Antagonistic” under setting [1].

B15: KE63: anti-FGFR3 IIIb and IIIc antibody of WO 2022/040560 A1; SEQ ID NO: 80/81 (antibody, V domains shown)
VH: QVQLQQSGAELVRPGASVTLSCKASGSTFSDFEIHWVKQTPVHGLEWIGGIDPETGGTAYNQKFKGKAILTADRSSSTAYMELRSLTSEDSAVYYCTRNYDGYSQTMDYWGQGTSVTVSS
VL: NIMMTQSPSSLAVSAGEKVTMSCKSSQSVLYSSNQKNYLAWYQQKPGQSPKLLIYWASTRESGVPDRFTGSGSGTDFTLTISSVQAEDLAVYYCHQYLSSYTFGGGTKLEMK
For the molecule B15, the Activity entry under setting [2] is on record as “Antagonistic” and the Activity result under setting [1] was “Antagonistic”.
